In patent publication US20260049143A1 (KYMAB, published 2026):

T1: human ICOS expressed on cells (human, UniProt Q9Y6W8 21-199)
T1 sequence: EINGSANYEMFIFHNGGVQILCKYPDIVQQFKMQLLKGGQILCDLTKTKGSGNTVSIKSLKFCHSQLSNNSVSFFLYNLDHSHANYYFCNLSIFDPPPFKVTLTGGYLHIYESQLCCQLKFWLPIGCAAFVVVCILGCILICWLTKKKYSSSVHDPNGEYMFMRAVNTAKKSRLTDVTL

T2: mouse ICOS-mFc (Chimerigen) (mouse, UniProt Q9WVS0 21-141, limits assumed)
T2 construct: Bought fusion; also called mICOS; recombinant mouse ICOS protein; not shown: mouse Fc
T2 sequence: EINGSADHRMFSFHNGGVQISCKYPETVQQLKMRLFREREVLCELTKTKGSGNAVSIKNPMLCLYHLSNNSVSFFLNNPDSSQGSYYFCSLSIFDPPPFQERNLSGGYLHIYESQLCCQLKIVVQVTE


What was measured:
[1] = target: T1, human ICOS expressed on cells; test: cell-based or functional assay
[2] = target: T1, human ICOS expressed on cells; test: cell-based or functional assay; remark: listed apart in the source
[3] = target: T3, human PD-L1 expressed on cells (human, UniProt Q9NZQ7 19-290); test: flow cytometry on CHO cells expressing human PD-L1, anti-human IgG PE detection
T3 construct: also called CHO human PD-L1; CHO-S cells transfected with human PD-L1
Experimental: (§1) CHO-S cells untransfected (referred to as WT) or transfected with the cDNA coding for human PD-L1 were diluted in FACS buffer (PBS+1% w/v BSA+0.1% w/v sodium azide) and were distributed to a 96-well V-bottom plate (Greiner) at a density of 5×10⁴ cells per well. […] Plates were centrifuged at 300×g for 3 minutes to supernatant aspirated. 50 μL antibody or mAb² solution were added to cells and incubated at 4° C. for 1 hour. Cells were washed with 150 μL of PBS and centrifuged at 300 g for 3 minutes. Supernatant was aspirated and 150 μL PBS added. This wash step was repeated. […] Cells were incubated for 1 hour at 4° C. in the dark. Cells were washed as previously described. To fix cells, 100 μL 4% v/v paraformaldehyde was added and cells incubated for 20 minutes at 4° C., cells were pelleted by centrifugation at 300×g and the plates resuspended in 100 μL FACS buffer.

[4] = target: T4, mouse PD-L1 expressed on CHO-S cells (mouse, UniProt Q9EP73 19-290); test: flow cytometry on CHO cells expressing mouse PD-L1, anti-human IgG PE detection
T4 construct: also called mPD-L1; CHO mouse PD-L1
Experimental: as §1, with “mPD-L1” for “the cDNA coding for human PD-L1”

[5] = target: FcγRIIIa on Jurkat NFAT luciferase v-variant effector cells (Promega) (human, UniProt P08637 17-254); test: cell-based or functional assay
[6] = target: T2, mouse ICOS-mFc (Chimerigen); test: DELFIA ELISA, coated mouse ICOS-mFc, mean
Experimental: Recombinant ICOS proteins, human ICOS-mFc or mouse ICOS-mFc (Chimerigen) were diluted in 1×PBS and added to Black Hi-bind plates (Griener) at 1 μg/ml, 50 μl/well. Recombinant PD-L1 proteins, human PD-L1-Flag-His or mouse-His were diluted in 1×PBS and added to Black Hi-bind plates (Griener) at 4 μg/ml, 50 μl/well. The plates were left overnight at 4° C. The next day plates were washed 3× with 300 μl/well of 1×PBS+0.1% Tween and blocked with 200 μl/well of 1×PBS+1% BSA blocking buffer for 1 hr at RT on a plate shaker. Plates were washed 3× with 300 μl/well of 1×PBS+0.1% Tween.
However, human-PD-L1 mAb² antibodies were diluted in 1×PBS+0.1% BSA buffer and diluted 1 in 2 from a starting working concentration of 0.066 μM over an 11 point titration. Titrated antibodies were added to the plates, 50 μl/well and left to incubate for 1 hr at R.T on a plate shaker. Plates were washed 3× with 300 μl/well of 1×PBS+0.1% Tween.
DELFIA® Eu-labelled Anti-human IgG(Perkin-Elmer) was diluted 1:500 in DELFIA Assay buffer (Perkin-Elmer) and added to the assay plate (50 μl/well), left to incubate for 1 hr at RT on a plate shaker. […] After incubation, assay was read on Envision plate reader (Perkin Elmer), Time-resolved fluorescence (TRF) was measured at 615 nm.

Chain of FcγRIIIa on Jurkat NFAT luciferase v-variant effector cells (Promega) (P08637 other isoform, or with tags, fused parts or gaps mutant limits assumed): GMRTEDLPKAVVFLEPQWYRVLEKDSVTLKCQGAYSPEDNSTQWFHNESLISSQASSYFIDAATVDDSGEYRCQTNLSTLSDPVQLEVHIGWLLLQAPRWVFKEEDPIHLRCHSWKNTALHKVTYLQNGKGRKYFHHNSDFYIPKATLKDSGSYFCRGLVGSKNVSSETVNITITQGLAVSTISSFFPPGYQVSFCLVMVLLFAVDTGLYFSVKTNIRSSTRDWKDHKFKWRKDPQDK
T4 sequence (Q9EP73 19-290 limits assumed): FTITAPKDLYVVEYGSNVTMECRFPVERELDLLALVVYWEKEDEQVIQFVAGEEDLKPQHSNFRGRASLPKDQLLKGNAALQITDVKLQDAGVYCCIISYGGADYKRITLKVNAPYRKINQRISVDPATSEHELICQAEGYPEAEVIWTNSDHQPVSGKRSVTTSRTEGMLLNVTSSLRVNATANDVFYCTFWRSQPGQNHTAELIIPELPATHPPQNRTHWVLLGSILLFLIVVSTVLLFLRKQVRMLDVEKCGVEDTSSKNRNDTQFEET
T3 sequence (Q9NZQ7 19-290 limits assumed): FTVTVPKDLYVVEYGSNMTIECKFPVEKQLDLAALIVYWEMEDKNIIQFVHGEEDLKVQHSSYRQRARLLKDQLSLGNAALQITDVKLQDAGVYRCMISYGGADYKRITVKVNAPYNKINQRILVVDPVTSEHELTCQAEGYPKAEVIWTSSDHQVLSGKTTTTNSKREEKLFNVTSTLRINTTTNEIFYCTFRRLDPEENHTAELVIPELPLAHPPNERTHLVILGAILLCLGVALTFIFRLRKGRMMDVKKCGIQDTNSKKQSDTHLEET

EC50, ADCC (BATDA dye release), ICOS-transfected CCRF-CEM targets, NK cells, Donor 326 [1] [nM] | EC50, ADCC (BATDA dye release), ICOS-transfected CCRF-CEM targets, NK cells, Donor 334 [1] [nM] | EC50, ADCC (BATDA dye release), ICOS-transfected CCRF-CEM targets, NK cells, Donor 341 [1] [nM] | EC50, ADCC (BATDA dye release), ICOS-transfected CCRF-CEM targets, NK cells, Median [1] [nM] | EC50 of IFN-γ release, plate-bound antibody, human T cells with CD3/CD28 beads, Median [2] [nM] | EC50 of IFN-γ release, plate-bound antibody, human T cells with CD3/CD28 beads, donor 276 [2] [nM] | EC50 of IFN-γ release, plate-bound antibody, human T cells with CD3/CD28 beads, donor 278 [2] [nM] | EC50 of IFN-γ release, plate-bound antibody, human T cells with CD3/CD28 beads, donor 289 [2] [nM] | EC50 of IFN-γ release, plate-bound antibody, human T cells with CD3/CD28 beads, donor 295 [2] [nM] | EC50, NFAT luciferase reporter, CHO human ICOS target cells, N=1 [5] [nM] | EC50, NFAT luciferase reporter, CHO human ICOS target cells, N=2 [5] [nM] | EC50, NFAT luciferase reporter, CHO human ICOS target cells, N=3 [5] [nM] | EC50, NFAT luciferase reporter, CHO human ICOS target cells, mean [5] [nM] | EC50, NFAT luciferase reporter, CHO mouse ICOS target cells, N=1 [5] [nM] | EC50, NFAT luciferase reporter, CHO mouse ICOS target cells, N=2 [5] [nM] | EC50, NFAT luciferase reporter, CHO mouse ICOS target cells, N=3 [5] [nM] | EC50, NFAT luciferase reporter, CHO mouse ICOS target cells, mean [5] [nM] | EC50 [6] [nM] | Binder | binding result [3] | binding result [4]
0.0111 | 0.0183 | 0.0066 | 0.012 | 8.1 | ~6 | ~3.8 | 10.2 | 12.7 | – | – | – | – | – | – | – | – | – | STIM003_289 (bispecific antibody, V domains shown, not shown: a dimerising Fc or GST) VH: EVQLVESGGGVVRPGGSLRLSCVASGVTFDDYGMSWVRQAPGKGLEWVSGINWNGGDTDYSDSVKGRFTISRDNAKNSLYLQMNSLRAEDTALYYCARDFYGSGSYYHVPFDYWGQGILVTVSS VL: EIVLTQSPGTLSLSPGERATLSCRASQSVSRSYLAWYQQKRGQAPRLLIYGASSRATGIPDRFSGDGSGTDFTLSISRLEPEDFAVYYCHQYDMSPFTFGPGTKVDIK | – | –
0.0309 | 0.0041 | ~0.0103 | 0.0175 | 9.45 | ~10 | 8.9 | 7.1 | 11.9 | – | – | – | – | – | – | – | – | – | STIM001_289 (bispecific antibody, V domains shown, not shown: a dimerising Fc or GST) VH: QVQVVQSGAEVKKPGASVKVSCKASGYTFSTFGITWVRQAPGQGLEWMGWISAYNGDTNYAQNLQGRVIMTTDTSTSTAYMELRSLRSDDTAVYYCARSSGHYYYYGMDVWGQGTTVTVSS VL: DIVMTQSPLSLPVTPGEPASISCRSSQSLLHSNEYNYLDWYLQKPGQSPQLLIFLGSNRASGVPDRFSGSGSGTDFTLKITRVEAEDVGIYYCMQSLQTPLTFGGGTKVEIK | – | –
0.0426 | 0.0205 | 0.0076 | 0.0236 | 10.7 | ~9.9 | ~10.2 | ~11.2 | 14.5 | 0.456 | 0.247 | 0.147 | 0.283 | 0.479 | 0.534 | 0.579 | 0.53 | 10.6 | STIM001 (antibody, human IgG1, kappa, also called STIM001 IgG1; STIM0001) heavy: not shown light: DIVMTQSPLSLPVTPGEPASISCRSSQSLLHSNEYNYLDWYLQKPGQSPQLLIFLGSNRASGVPDRFSGSGSGTDFTLKITRVEAEDVGIYYCMQSLQTPLTFGGGTKVEIKRTVAAPSVFIFPPSDEQLKSGTASVVCLLNNFYPREAKVQWKVDNALQSGNSQESVTEQDSKDSTYSLSSTLTLSKADYEKHKVYACEVTHQGLSSPVTKSFNRGEC | no binding (tested: about 2e-7 M (log M -6.7)) | no binding (tested: about 2e-8 M (log M -7.7))
0.0212 | 0.0037 | 0.0067 | 0.0105 | 5.55 | 7.1 | 3.8 | ~4 | ~11.6 | 0.326 | 0.477 | 0.24 | 0.347 | 0.508 | 0.754 | 0.703 | 0.655 | – | STIM003 (antibody, human IgG1, kappa, also called STIM003 IgG1) heavy: not shown light: EIVLTQSPGTLSLSPGERATLSCRASQSVSRSYLAWYQQKRGQAPRLLIYGASSRATGIPDRFSGDGSGTDFTLSISRLEPEDFAVYYCHQYDMSPFTFGPGTKVDIKRTVAAPSVFIFPPSDEQLKSGTASVVCLLNNFYPREAKVQWKVDNALQSGNSQESVTEQDSKDSTYSLSSTLTLSKADYEKHKVYACEVTHQGLSSPVTKSFNRGEC | no binding (tested: about 2e-7 M (log M -6.7)) | no binding (tested: about 2e-8 M (log M -7.7))
